Measurements: patent US20260259223A1 (NORDIC BIOSCIENCE A S, published 2026)
Primed or numbered codes have the meaning given here. Where no end group is shown, it is not given here. Biotin′ = not defined here

T1: Elongated standard peptide (Elongated selection peptide) QDSGPEYADVV (human)
T1 construct: also called elongated peptide
T1 peptide: QDSGPEYADVV

T2: Truncated standard peptide (Truncated selection peptide) SGPEYADVV (human)
T2 construct: also called truncated peptide
T2 peptide: SGPEYADVV

T3: Non-sense standard peptide YRDDLKKLLE
T3 construct: also called non-sense peptide
T3 peptide: YRDDLKKLLE

T4: Non-sense coating peptide YRDDLKKLLE-Biotin
T4 construct: also called non-sense coater
T4 peptide: YRDDLKKLLE-{Biotin′}

B1: Standard peptide (Selection peptide) DSGPEYADVV (peptide)
peptide: DSGPEYADVV
notes: Synthetic peptide from Genscript; also called C6A6
B2: monoclonal antibody clone NBH-306-11 8E7-2C11-1F10-2C10 (antibody, mouse IgG1, kappa, V domains shown)
VH: EVKLVESGGDLVKPGGSLKLSCAASGFTFTSYAMSWVRQTPEKRLEWVASVTSGGTHYLDSVKGRFTISRDIARNILYLQMSSLRSEDTAMYFCARGVSFAYWGQGTLVTVSA
VL: DIVMTQSQKFMSTSVGDRVSVTCKASQNVGTDVVWYQQRPGQSPKALMYSASYRYSGVPDRFTGSGSGTDFTLTISNVQSEDLAEYFCQHYDNYPLTFGAGTKLELKR
notes: also called the mAb; C6A6 assay antibody

Legend:
[1] = biological target: B2; experiment: competitive CLIA: the free standard peptide competes with plate-coated …-K-Biotin for the HRP-labelled mAb (200 ng/mL)
Procedure: The development of a competitive chemiluminescence immunoassay (CLIA) targeting the C6A6 target sequence included several preliminary optimizing experiments where reagents, concentrations, incubation-time and -temperature were analyzed by several tests. […] The relative light units were measured at all wavelengths within 5 min on a microplate luminometer reader (SpectraMax M5, Molecular Devices, CA, USA). […] Data were analyzed using the SoftMax Pro version 7.0.3 software.
(§1) Two-fold dilutions of four human serum and two rat serum samples were used to assess linearity. Linearity was calculated as a percentage of recovery of the undiluted sample. Antibody specificity was calculated as percentage of signal inhibition by two-fold diluted standard peptide ([…] (SEQ ID NO: 1)), elongated peptide ([…] (SEQ ID NO: 2)), truncated peptide ([…] (SEQ ID NO: 3)), and non-sense peptide ([…] (SEQ ID NO: 17)). The intra- and inter-assay variation was determined by 10 independent runs of five quality controls and two kit controls run in double determinations.

[2] = biological target: B1; experiment: ELISA screening of hybridoma clones / specificity test
[3] = biological target: T1, Elongated standard peptide (Elongated …); experiment: competitive CLIA/ELISA (signal inhibition by two-fold diluted peptide)
Procedure: (§2) The development of a competitive chemiluminescence immunoassay (CLIA) targeting the C6A6 target sequence included several preliminary optimizing experiments where reagents, concentrations, incubation-time and -temperature were analyzed by several tests. The final C6A6 competitive ELISA procedure was as follows: A 96-well streptavidin-coated white microplate (Greiner Bio-One, Kremsmünster, Austria) was coated with 3 ng/mL biotinylated synthetic peptide ([…]-K-Biotin (SEQ ID NO: 18)) dissolved in assay buffer (10 mM phosphate buffered saline (PBS), 1% bovine serum albumin, 0.1% Tween-20, 0.36% Bronidox, 4 g/L NaCl, adjusted to pH 7.4 at 20° C.) and incubated for 30 min at 20° C. with constant shaking (300 rpm) in darkness. Next, 20 μL/well of standard peptide (100 ng/ml) and samples were added to the appropriate wells, followed by the addition of 100 μL/well of HRP-labelled antibody (generated as described above) diluted in assay buffer to the concertation of 200 ng/ml and incubated for 1 h at 20° C. with constant shaking (300 rpm) in darkness. After each incubation step, wells were washed five times with standard washing buffer (20 mM Tris, 50 mM NaCl, pH 7.2). […] The relative light units were measured at all wavelengths within 5 min on a microplate luminometer reader (SpectraMax M5, Molecular Devices, CA, USA). […] Data were analyzed using the SoftMax Pro version 7.0.3 software.
as §1

[4] = biological target: T2, Truncated standard peptide (Truncated …); experiment: as above
Procedure: as §2, §1

[5] = biological target: T3, Non-sense standard peptide YRDDLKKLLE; experiment: as above
Procedure: as §2, §1

[6] = biological target: T4, Non-sense coating peptide …; experiment: CLIA/ELISA on a streptavidin plate coated with the non-sense coating peptide

Row | IC50 [1] [ng/mL] | binding result [2] | binding result [3] | binding result [4] | binding result [5] | binding result [6] | Binder
1 | 3.86 | – | – | – | – | – | B1
2 | – | binds | no binding | no binding | no binding | no binding | B2
